The source of these data is PMC3073974, “A Model of a MAPK•Substrate Complex in an Active Conformation: A Computational and Experimental Approach” (PLoS ONE, 2011).

Data set [1] concerns the target T1, ERK2 (Rattus norvegicus, UniProt P63086).
T1 construct: made in house
As to the kind of experiment: Steady-state kinetics: inhibition of Ets phosphorylation by ERK2. As to conditions: 1 mM MgATP. Format: biochemical. The procedure: Activated tagless ERK2 was generated essentially as described in (Kaoud, T.S. et al. manuscript in preparation). Expression and purification of Ets-1 (1-138) was followed by the method described in the previously published literature.
(§1) zReactions were carried out at 27°C in kinase assay buffer (25 mM HEPES pH 7.4, 100 mM KCl, 2 mM DTT, 40 µg/mL BSA, and 20 mM MgCl2) containing 2 nM ERK2 and varied concentrations of substrates and inhibitors. Rates were measured under conditions where total product formation represented less than 10% of the initial substrate concentrations. The reaction was incubated for 10 min before initiation by addition of enzyme and quantified as described previously. Initial rates were determined by linear least squares fitting to plots of product against time. Reciprocal plots of 1/v against 1/s were checked for linearity, before the data were fitted to eqn. 1 using a non-linear least squares approach, assuming equal variance for velocities, using the program Kaleidagraph 3.5 (Synergy software). The intercepts [drawing 1] and slopes [drawing 2] obtained from these fits were then plotted against either the inhibitor concentration (i) (for inhibition experiments) or the reciprocal of the non-varied substrate concentration (1/s) (for initial velocity experiments). These plots were used to determine the appearance of the overall kinetic equation. Values for kinetic constants were then obtained using the program Scientist (Micromath) by fitting the kinetic data to the relevant over-all equation. Data conforming to a sequential initial velocity pattern were fitted to eqn 2; data conforming to linear competitive inhibition were fitted to eqn. 3; data conforming to hyperbolic mixed inhibition were fitted to eqn. 4. Dose-response curves for data conforming to linear inhibition were fitted to eqn. 5; and for data conforming to hyperbolic inhibition to eqn. 6. [drawing 3] (1) [drawing 4] (2) [drawing 5] (3) [drawing 6] (4) [drawing 7] (5) [drawing 8] (6)

Data set [2] has as its target T1, ERK2. In words: Steady-state kinetics: inhibition of Δ23N-Ets phosphorylation by ERK2. The format is biochemical. The conditions noted are these: Δ23N-Ets 50 µM, 1 mM MgATP, Lig-D 0–200 µM (eqn 6) or Lig-F 0–400 µM (eqn 5); fitted k0 5.5±0.1 s^−1 (Lig-D), 5.4±0.1 s^−1 (Lig-F); read-out: K50, concentration giving half the maximal change in kobs for phosphorylation of Δ23N-Ets. The procedure:
as §1, with “Data conforming to a sequential initial velocity pattern were fitted to eqn 2; data conforming to linear competitive inhibition were fitted to eqn. 3; data conforming to hyperbolic mixed inhibition were fitted to eqn. 4. Dose-response curves for data conforming to linear inhibition were fitted to eqn. 5; and for data conforming to hyperbolic inhibition to eqn. 6. [drawing 3] (1) [drawing 4] (2) [drawing 5] (3) [drawing 6] (4) [drawing 7] (5) [drawing 8] (6)” left out

Data set [3] has as its target T1, ERK2. In words: Steady-state parameters for phosphorylation of Ets and N-terminal Ets mutants by ERK2. Format: biochemical. The conditions noted are these: phosphorylation by ERK2 (2 nM), 27°C. On the procedure:
pET-28a Ets was PCR amplified with a forward primer containing an NdeI site (encoding the initial methionine) followed by the codon encoding Phe-24 (5′-GG GAATTCCATATGTTCCCTTCCCCGGACATG-3′) and an outer reverse primer (5′-GCTAGTTATTGCTCAGCGGTGG-3′) using the following PCR conditions: 94°C for 5 min to denature the complementary strands; 30 cycles of 55°C for 30 sec to anneal the primers, extension for 1 min at 72°C, followed by a denaturation step at 94°C for 45 sec; complementary strands were extended a final 10 min at 72°C. The N-terminal mutant PCR product was digested with NdeI and HindIII and ligated into NdeI-HindIII digested pET-28a. All proteins produced from pET-28a have an N-terminal sequence of […]- prior to the initial methionine encoded by the Ets cDNA giving EtsΔ24-138 an approximate mass of 15, 391 Da whereas Ets 1-138 has a mass of 17, 681 Da (lacking the initial methionine).
pET28a-Ets was modified by overlap extension polymerase chain reaction to construct the single cysteine mutant of Ets (C99A/C106A/C112A) in an Ets S26A background as reported elsewhere. Mutations were produced by a single-step PCR reaction using the following PCR amplification reaction (50 µL) contained Phusion DNA polymerase GC buffer, 200 µM each of the four deoxynucleoside triphosphates, 2 mM MgCl2, 3% DMSO, 80 ng of template DNA (Ets-C31 pET28a vector), 0.5 µM primers forward and reverse, and 1 µL of Phusion DNA polymerase (Finnzymes, USA, Product # F-530-S). […]
zReactions were carried out at 27°C in kinase assay buffer (25 mM HEPES pH 7.4, 100 mM KCl, 2 mM DTT, 40 µg/mL BSA, and 20 mM MgCl2) containing 2 nM ERK2 and varied concentrations of substrates and inhibitors. Rates were measured under conditions where total product formation represented less than 10% of the initial substrate concentrations. The reaction was incubated for 10 min before initiation by addition of enzyme and quantified as described previously. Initial rates were determined by linear least squares fitting to plots of product against time. […]

The target of data set [4] is T1, ERK2. The conditions noted are these: stopped-flow; cited from earlier work. An excerpt:
Since the seminal paper by Wright the role of intrinsically disordered regions of proteins has been a topic of great interest. […] In fact, many docking sites for the DRS of a MAPK are found at the extreme termini of MAPK ligands, such as the upstream activators the MKKs, and may be disordered. For examp ...

Where [5] appears, read: fit of Lig-D inhibition data (Fig. 5D), eqn 4, Ets 3–59 µM.
Where [6] appears, read: fit of Lig-F inhibition data (Fig. 5B), eqn 3, Ets 2–12 µM.
The mark [7] stands for this setting: 25 mM HEPES pH 7.4, 100 mM KCl, 20 mM MgCl2.

Residues, ends and D or L forms follow the SMILES beside them.

T1 sequence (P63086 whole entry): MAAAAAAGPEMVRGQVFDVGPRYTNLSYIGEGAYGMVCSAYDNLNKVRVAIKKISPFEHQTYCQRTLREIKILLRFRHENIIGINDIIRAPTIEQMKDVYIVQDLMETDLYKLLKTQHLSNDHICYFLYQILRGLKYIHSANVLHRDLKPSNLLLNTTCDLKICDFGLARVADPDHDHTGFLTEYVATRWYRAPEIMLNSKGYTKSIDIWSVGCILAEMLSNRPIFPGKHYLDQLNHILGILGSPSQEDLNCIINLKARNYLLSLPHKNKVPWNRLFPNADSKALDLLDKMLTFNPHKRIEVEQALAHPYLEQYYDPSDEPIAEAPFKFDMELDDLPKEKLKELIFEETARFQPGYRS

As for `CC(=O)N[C@@H](Cc1ccc(O)cc1)C(=O)N[C@@H](C)C(=O)N1CCC[C@H]1C(=O)N[C@@H](CCCNC(=N)N)C(=O)N[C@@H](C)C(=O)N1CCC[C@H]1C(=O)N[C@@H](C)C(=O)N[C@@H](CCCCN)C(=O)N[C@@H](CC(C)C)C(=O)N[C@@H](C)C(=O)N[C@@H](Cc1ccccc1)C(=O)N[C@@H](CCC(N)=O)C(=O)N[C@@H](Cc1ccccc1)C(=O)N1CCC[C@H]1C(=O)N[C@@H](CO)C(=O)N[C@@H](CCCNC(=N)N)C(N)=O` [Lig-F] (Ac-YAPRAPAKLAFQFPSR-NH2), the IC50 at ERK2 [1] (Ets 6.4 µM, peptide 0–400 µM, 2 nM ERK2, 27°C, HEPES pH 7.4, fit eqn 6 (Lig-D, partial) or eqn 5 (Lig-F, full), fitted k0 8.0±0.2 s^−1 (Lig-D), 10.3±0.2 s^−1 (Lig-F), read-out: K50, concentration giving half the maximal change in kobs for phosphorylation of Ets) is 33.5 ± 1.9 µM; on ERK2 [2], 43 ± 2 µM. The Ki at ERK2 [1] (Lig-F 0–200 µM, Ets 2–12 µM, fit eqn 3, read-out: apparent competitive inhibition constant (Ki), full linear competitive inhibition vs Ets) turned out to be 22 ± 1.9 µM.

B1: Ets: His-tagged murine Ets-1 residues 1-138, ERK2 substrate; N-terminus MKAAVDLKPTLTII (protein, UniProt P27577 1-138, looked up, fragment)
chain: MKAAVDLKPTLTIIKTEKVDLELFPSPDMECADVPLLTPSSKEMMSQALKATFSGFTKEQQRLGIPKDPRQWTETHVRDWVMWAVNEFSLKGVDFQKFCMSGAALCALGKECFLELAPDFVGDILWEHLEILQKEDVK
modifications: His tag
On to B1, for which, in the data set with ERK2 [1] (setting [5]), the “apparent Michaelis constant for Ets” value came out at 6.3 ± 1.7 µM and the “apparent catalytic constant for Ets phosphorylation” value was found to be 14.1 ± 1.3 s⁻¹. In the data set with ERK2 [1] (setting [6]), the “apparent Michaelis constant for Ets” value came out at 5.6 ± 0.7 µM and the “apparent catalytic constant for Ets phosphorylation” value was found to be 14.9 ± 0.8 s⁻¹. For the same molecule, in the data set with ERK2 [3] (25 mM HEPES pH 7.4), the “k cat/K m” value was 1e+06 M⁻¹ s⁻¹. Besides, in the data set with ERK2 [3] (setting [7]), the K m is 17.0 ± 4.0 µM and the k cat turned out to be 18.0 ± 2.0 s⁻¹.

B2: phospho Ets: Ets phosphorylated by ERK2 (on Thr-38), product of the reaction (protein, UniProt P27577 1-138, looked up, fragment)
chain: B1 chain
modifications: phosphorylated Thr38; His tag
notes: Ets phosphorylated by ERK2 (on Thr-38), product of the reaction
As to B2, in the data set with ERK2 [4], the “rate constant for association k on” value was 5e+06 M⁻¹ s⁻¹ and the “rate constant for dissociation k” value was > 100 s⁻¹.
